In patent US20140193449A1:

Target: CD8+ splenocytes from LV-huCEA-vaccinated huCEA transgenic mice (T cell receptors of huCEA-specific CTLs)
Experiment: flow cytometry, tetramer and anti-CD8 double staining of pooled splenocytes

percent of CD8+ splenocytes stained by the tetramer: 2.1%
Substance: PE-conjugated huCEA/H-2Db tetramer specific for EAQNTTYL (SEQ ID NO: 23) immunogenic peptide (iTag, Beckman Coulter) (from UniProt P01899 25-309) (peptide-MHC)
